In article PMC12205651, “A 36-base hairpin within lncRNA DRAIC, which is modulated by alternative splicing, interacts with the IKKα coiled-coil domain and inhibits NF-κB and tumor cell phenotypes”:

Assays:
IKKα-His [1] = target: T1, IKKα-His (UniProt O15111); experiment: pull-down (in vitro RIP-qPCR); settings: SPR: 10 mM HEPES pH 7.4, 150 mM NaCl, 3 mM EDTA, 0.05% P20, 25 °C; pull-down: 25 mM HEPES pH 7.5, 150 mM NaCl, 0.05% NP-40, 10% glycerol, RT; EMSA: LightShift …
T1 sequence: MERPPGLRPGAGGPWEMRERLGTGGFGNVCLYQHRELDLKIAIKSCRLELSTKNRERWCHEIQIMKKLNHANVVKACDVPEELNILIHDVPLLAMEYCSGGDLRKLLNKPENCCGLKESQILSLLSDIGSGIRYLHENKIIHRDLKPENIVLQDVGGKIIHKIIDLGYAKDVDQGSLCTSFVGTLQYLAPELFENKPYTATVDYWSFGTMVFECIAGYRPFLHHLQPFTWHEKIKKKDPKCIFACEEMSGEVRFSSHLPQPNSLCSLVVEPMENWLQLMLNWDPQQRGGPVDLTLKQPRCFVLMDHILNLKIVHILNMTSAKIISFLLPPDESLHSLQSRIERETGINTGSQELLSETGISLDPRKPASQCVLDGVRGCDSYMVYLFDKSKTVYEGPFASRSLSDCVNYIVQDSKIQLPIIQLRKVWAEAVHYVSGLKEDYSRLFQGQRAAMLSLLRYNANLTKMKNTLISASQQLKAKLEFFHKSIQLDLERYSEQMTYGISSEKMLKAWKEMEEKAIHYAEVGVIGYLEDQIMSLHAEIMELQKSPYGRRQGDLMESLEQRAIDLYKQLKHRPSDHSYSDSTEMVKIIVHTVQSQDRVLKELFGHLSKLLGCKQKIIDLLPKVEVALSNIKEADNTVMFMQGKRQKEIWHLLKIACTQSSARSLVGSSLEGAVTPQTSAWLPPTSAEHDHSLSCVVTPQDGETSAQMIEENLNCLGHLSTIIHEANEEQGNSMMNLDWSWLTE

IKKα-His [2] = target: T1, IKKα-His; experiment: SPR; settings: SPR: 10 mM HEPES pH 7.4, 150 mM NaCl, 3 mM EDTA, 0.05% P20, 25 °C; pull-down: 25 mM HEPES pH 7.5, 150 mM NaCl, 0.05% NP-40, 10% glycerol, RT; EMSA: LightShift …
GST-NEMO = GST-NEMO (UniProt Q9Y6K9 1-419); experiment: SPR; biotin RNA immobilized; SPR: 10 mM HEPES pH 7.4, 150 mM NaCl, 3 mM EDTA, 0.05% P20, 25 °C; pull-down: 25 mM HEPES pH 7.5, 150 mM NaCl, 0.05% NP-40, 10% glycerol, RT; EMSA: LightShift kit, 22 °C, 25 min; settings: protein: recombinant; tags: GST; chain copies: 2; label: 5' biotin; hairpin
Sequence of GST-NEMO (Q9Y6K9 whole entry): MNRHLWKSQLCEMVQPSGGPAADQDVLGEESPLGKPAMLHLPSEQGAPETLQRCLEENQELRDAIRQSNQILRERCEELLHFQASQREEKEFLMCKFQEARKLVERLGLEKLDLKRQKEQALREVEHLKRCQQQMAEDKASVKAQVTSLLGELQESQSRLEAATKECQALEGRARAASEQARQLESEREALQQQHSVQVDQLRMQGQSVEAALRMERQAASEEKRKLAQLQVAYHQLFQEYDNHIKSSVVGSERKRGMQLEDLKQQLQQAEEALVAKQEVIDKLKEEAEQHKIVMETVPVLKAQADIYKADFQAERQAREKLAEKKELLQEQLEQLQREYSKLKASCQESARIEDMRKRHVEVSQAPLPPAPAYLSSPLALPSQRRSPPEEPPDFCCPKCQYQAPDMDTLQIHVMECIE

MBP-IKKα-6His = target: T2, MBP-IKKα-6His (UniProt O15111 1-745); experiment: SPR; biotin RNA immobilized on NeutrAvidin chip, protein analyte; text gives 6.09 ± 1.08 nM; SPR: 10 mM HEPES pH 7.4, 150 mM NaCl, 3 mM EDTA, 0.05% P20, 25 °C; pull-down: 25 mM HEPES pH 7.5, 150 mM NaCl, 0.05% NP-40, 10% glycerol, RT; EMSA: LightShift kit, 22 °C, 25 min; settings: protein: recombinant; tags: N-term MBP (pMAL-c5X), C-term His6; chain copies: 2; label: 5' biotin; hairpin
T2 sequence: T1 sequence

With “GGGAGAUUGGAAUAACUUGCAGUGUCUUGCAGUAUUGUGAAACCAGCAACUUGUUCACAAUUCUUCUGAAUUUCUUGGGAAAUUUGAAGUGGAGUACCUGUACCAACAUGAAAUGACACGAAUUUAAGUGACGCUCAACAACGAAAAGCAAAAAGAACCAAAGAGGAAGCAACUGAAACAACAUCUGGAUGUAUUUAAAAAUAUACAAUGCCUCCAAAAUCAGGUGUCAUUAAUGAAAAUUCUGAAGAAAUG [DRAIC 705-950]” the binding (IKKα-His [1]) was “binds”.

For “UUGGAAUAACUUGCAGUGCCAGCAACUUGUUCACAA [A+B DRAIC RNA]”, the Kd (IKKα-His [2]) was 0.541 nM.

For UUGGAAUAACUUGCAGUGCCAGCAACUUGUUCACAA (structured_RNA) [5'-biotin A+B DRAIC RNA], the binding result (GST-NEMO) was “no binding” and the Kd (MBP-IKKα-6His) was 6.29 ± 1.08 nM.
